Assay results taken from article PMC8584533, “Hetero/Homo-Complexes of Sucrose Transporters May Be a Subtle Mode to Regulate Sucrose Transportation in Grape Berries” (International Journal of Molecular Sciences, 2021).

T1: SUC11 (Chardonnay) (Vitis vinifera, UniProt Q9SQK6)
T1 construct: gene VvSUC11; full length, 500 residues, one site different from Thompson Seedless; expressed in yeast SUSY7/ura3
T1 sequence (Q9SQK6 1-501): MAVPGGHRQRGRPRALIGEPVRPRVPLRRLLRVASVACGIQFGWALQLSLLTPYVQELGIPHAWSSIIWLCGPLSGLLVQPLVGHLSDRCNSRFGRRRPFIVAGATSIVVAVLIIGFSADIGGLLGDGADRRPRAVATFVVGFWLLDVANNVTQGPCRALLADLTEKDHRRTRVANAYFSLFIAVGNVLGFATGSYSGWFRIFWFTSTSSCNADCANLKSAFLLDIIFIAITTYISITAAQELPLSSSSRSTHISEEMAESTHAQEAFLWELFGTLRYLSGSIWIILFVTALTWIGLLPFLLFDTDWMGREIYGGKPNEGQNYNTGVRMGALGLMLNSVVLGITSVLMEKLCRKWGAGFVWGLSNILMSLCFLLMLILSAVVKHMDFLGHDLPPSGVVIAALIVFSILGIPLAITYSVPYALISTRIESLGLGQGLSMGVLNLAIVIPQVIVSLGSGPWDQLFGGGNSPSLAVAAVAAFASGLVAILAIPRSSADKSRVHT

B1: VvSUC12 (Vitis vinifera) (protein)
chain: MPETMDAPSIRVPYKNLKQAEVELVAADEPRHGADLNSRVPNGTSDPSSSPSSIPHPPKHGGLRTLILSCMIAAGVQFGWALQLSLLTPYIQTLGIEHAFSSFIWLCGPITGLVVQPCVGIWSDKCSSKYGRRRPFILAGSLMISVAVTIIGFSADIGYLLGDTNMDCRKFKGTRTWAAIIFVLGFWMLDLANNTVQGPARALLADLSGPDQRNSANAIFCSWMAVGNILGFSAGASGHWHRWFPFLLNKACCEACGNLKAAFLIAVVFLTLCTLVTLYFAEEVPLMAYQPHHLSDSAPLLDNPQQIGFDNSKSKLDMSAVDNATGNNPESSYEINKNAKHLTPIVQEQNESFSDGPGAVLVNLLTSLRHLPPAMHSVLLVMALSWLSWFPFFLFDTDWMGREVYHGDPKGDESAVKAYDAGVREGAFGLLLNSVDLGISSFLIEPMCQRMGARLVWAMSNFIVFACMAGTAIISLVSVNEYITEGIQHAIGENRAIKIASLVVFALLGFPLSITYSVPFSITAELTADTGGGQGLAIGVLNLAIVIPQMIVSLGAGPWDALFGGGNIPAFVLAALFALAAGVIATLKLPNLSSSSYKSSGFHFGNFPASMR
notes: full length, 611 residues (printed), leaf cDNA in pDR196, expressed in yeast SUSY7/ura3
B2: VvSUC27 (Vitis vinifera) (protein)
chain: MELAKPSSVFAIQDHQSSSPPTPIWKTVVVASIAAGIQFGWALQLSLLTPYVQLLGIPHKWAAFIWLCGPISGMIVQPVVGYHSDRCTSRFGRRRPFIAAGAVLVAIAVFLIGYAADIGRVSGDPLHNTIKTRAVAVFVVGFWILDVANNMLQGPCRALLADLSGTSARRTRTANALYSFFMAVGNVLGYAAGSFSKLHKMFPFARTQACDLYCANLKSCFFLSIALLLILTIIAFATVHETPLNRADIAVVEAGQPFYSQMMNAFRQLRRPMWVLLLVTCLNWIGWFPFLLFDTDWMGREVYGGTVGEGPRGRLYDLGVRAGSLGLMLNSVVLGLMSLGVEFFGRGVGGVKRLWGGVNFLLALCLALTVLVSKLAASWRHSLGGELHPPPIGIKAGALSLFAVMGVPLAITYSIPFALASIFCHSSGAGQGLSLGVLNLAIVVPQMMVSVASGPWDARFGGGNLPAFVVGAFAAALNGVLALTMLPAPPPDVPNTKDERTQPSS
notes: full length, 504 residues (printed), leaf cDNA in pDR196, expressed in yeast SUSY7/ura3
B3: VvSUC11 (Vitis vinifera) (protein)
chain: T1 sequence (Q9SQK6 1-501)
notes: full length, 500 residues (printed), leaf cDNA in pDR196, expressed in yeast SUSY7/ura3

Key:
SUC11 (Chardonnay) = target: T1, SUC11 (Chardonnay); assay: sucrose transport in yeast SUSY7/ura3; assay type: cell-based; conditions: 0.1, 0.2 and 2 mM sucrose
[1] = substrate: OC[C@H]1O[C@@](CO)(O[C@H]2O[C@H](CO)[C@@H](O)[C@H](O)[C@H]2O)[C@@H](O)[C@@H]1O; assay: cells, lysate or membranes; assay type: cell-based, Vitis vinifera; conditions: pH 5.0, 30 °C, 10 mM glucose, 20 min, expressed alone, labelled compound

| Molecule | sucrose transport ability (SUC11 (Chardonnay)) | Km [1] [µM] |
| --- | --- | --- |
| OC[C@H]1O[C@@](CO)(O[C@H]2O[C@H](CO)[C@@H](O)[C@H](O)[C@H]2O)[C@@H](O)[C@@H]1O [sucrose] | did not affect the structure (Figure S5a) or sucrose transport ability |  |
| B1 |  | 943 |
| B2 |  | 3064 |
| B3 |  | 354 |
